Measured values published in patent US20230277624A1 (ONCOSEC MEDICAL, published 2023).

Key:
[1] = target: T1, Recombinant mouse CTLA-4/human IgG1 chimera (R&D Systems) (mouse; human, UniProt P09793 36-162, limits assumed); assay: ELISA; mouse CTLA-4/human IgG1 chimera coated at 1 or 5 µg/mL, HEK293 conditioned medium (130 ng/mL), anti-mouse IgG-HRP, OD 450 nm
T1 construct: Bought reagent, immobilised in 96-well plates; also called recombinant mCTLA-4/Fc; recombinant CTLA4 protein; not shown: human IgG1 portion (Fc) of the bought chimera
Protocol: (§1) Plasmid encoded anti-CTLA4 scFv bound to recombinant CTLA4 protein. Transfection-derived secreted anti-CTLA4 (scFv) were evaluated for their binding capacity to CTLA-4. Recombinant mouse CTLA-4/human IgG1 chimera (R&D Systems) were immobilized in 96-well plates (1 or 5 μg/mL, or […]) for 18 hr at room temperature. Wells were washed three times with 0.1% Tween in PBS and blocked with 1% BSA in PBS. Conditioned medium from HEK293 cells transfected with 9H10-scFv (168 ng/mL) or 9D9-scFv (130 ng/mL) was added to the wells, and incubated for 2 h at room temperature. Wells were washed three times, and anti-mouse IgG-horseradish peroxidase (Jackson ImmunoResearch, 0.2 μg/mL) were added and incubated for 1.5 hours at room temperature. Wells were again washed three times, developed with HRP Substrate Reagent (R&D Systems) and stopped with Stop Solution, 2N sulfuric acid (R&D Systems). Optical density of each well was measured at 450 nm.

[2] = target: T1, Recombinant mouse CTLA-4/human IgG1 …; assay: ELISA; mouse CTLA-4/human IgG1 chimera coated at 1 or 5 µg/mL, HEK293 conditioned medium (168 ng/mL), anti-mouse IgG-HRP, OD 450 nm
Protocol: as §1

B1: Igκ-HA-9D9 VLC-Linker-9D9 VHC-Linker-mIgG1 Fc domain (anti-CTLA-4 scFv) (Fc fusion)
scFv: YPYDVPDYAGAQPARSDIVMTQTTLSLPVSLGDQASISCRSSQSIVHSNGNTYLEWYLQKPGQSPKLLIYKVSNRFSGVPDRFSGSGSGTDFTLKISRVEAEDLGVYYCFQGSHVPYTFGGGTKLEIKRADAAPTVSGSGGGSGGGSGGGSEAKLQESGPVLVKPGASVKMSCKASGYTFTDYYMNWVKQSHGKSLEWIGVINPYNGDTSYNQKFKGKATLTVDKSSSTAYMELNSLTSEDSAVYYCARYYGSWFAYWGQGTLITVSTAKTTPPSVYPLAPVDSSGSGGCKPCICTVPEVSSVFIFPPKPKDVLTITLTPKVTCVVVDISKDDPEVQFSWFVDDVEVHTAQTQPREEQFNSTFRSVSELPIMHQDWLNGKEFKCRVNSAAFPAPIEKTISKTKGRPKAPQVYTIPPPKEQMAKDKVSLTCMITDFFPEDITVEWQWNGQPAENYKNTQPIMDTDGSYFVYSKLNVQKSNWEAGNTFTCSVLHEGLHNHHTEKSLSHSPGK
notes: Secreted into the conditioned medium of transfected HEK293 cells (130 ng/mL) and used as such; also called 9D9-scFv; plasmid encoded anti-CTLA4 scFv
binding result [1]: binds

B2: Igκ-HA-9H10 VLC-Linker-9H10 VHC-Linker-mIgG1 Fc domain (anti-CTLA-4 scFv) (Fc fusion)
scFv: YPYDVPDYAGAQPARSDIVMTQSPSSLAVSVGEKVTISCKSSQSLLYGSSHYLAWYQQKVGQSPKLLIYWASTRHTGIPDRFIGSGSGTDFTLSLSSVQAEDMADYFCQQYFSTPWTFGAGTRVEIKSGSGGGSGGGSGGGSQVQLLQSESELVKPGASVKLSCKTSGYTFTDYYIHWVKQKPGQGLEWIGLINPNNDGTNYNQKFQGKATLTADKSSSTAYMELNSLTFDDSVIYFCARASSRLRMARTTSDYYAMDYWGQGIQVTVSSVDSSGSGGCKPCICTVPEVSSVFIFPPKPKDVLTITLTPKVTCVVVDISKDDPEVQFSWFVDDVEVHTAQTQPREEQFNSTFRSVSELPIMHQDWLNGKEFKCRVNSAAFPAPIEKTISKTKGRPKAPQVYTIPPPKEQMAKDKVSLTCMITDFFPEDITVEWQWNGQPAENYKNTQPIMDTDGSYFVYSKLNVQKSNWEAGNTFTCSVLHEGLHNHHTEKSLSHSPGK
notes: Secreted into the conditioned medium of transfected HEK293 cells (168 ng/mL) and used as such; also called 9H10-scFv; plasmid encoded anti-CTLA4 scFv
binding result [2]: binds
